Data published in patent US20110014209A1.

What was measured:
[1] = target: CD81 MBP-LEL (maltose-binding protein fused to the CD81 large extracellular loop, residues 113-201) (human) (UniProt P60033); experiment: CD81 MBP-LEL solid-phase assay, virion-incorporated E2
[2] = target: HCV E1 glycoprotein (H77c), expressed from the pE1E2 vectors (hepatitis C virus H77c) (UniProt P27958); experiment: cell-based or functional assay
[3] = target: full-length human CD81 expressed on transfected CHO-K1 cells (human) (UniProt P60033); experiment: binding to CD81-transfected CHO-K1 cells, 125I-9E10 detection
full-length human CD81 expressed on transfected CHO-K1 cells (human), sequence (P60033 whole entry): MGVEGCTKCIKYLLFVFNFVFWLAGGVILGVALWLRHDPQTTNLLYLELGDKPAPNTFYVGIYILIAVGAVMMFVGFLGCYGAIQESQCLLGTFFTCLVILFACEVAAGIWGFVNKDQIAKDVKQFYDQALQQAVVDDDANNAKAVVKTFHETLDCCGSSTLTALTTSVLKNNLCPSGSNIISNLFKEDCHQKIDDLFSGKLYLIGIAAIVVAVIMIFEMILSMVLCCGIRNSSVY

CD81 MBP-LEL (maltose-binding protein fused to the CD81 large extracellular loop, residues 113-201) (human), sequence (P60033 113-201 limits assumed): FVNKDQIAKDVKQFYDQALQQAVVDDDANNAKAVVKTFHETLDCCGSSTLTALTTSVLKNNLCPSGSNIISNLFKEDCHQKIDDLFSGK

E2 glycoprotein expressed from pE1E2 Δ1 (HVR1 deletion, residues 387-408 replaced by GSSG) (from UniProt P27958 409-746)
fold increase in the overall binding curve compared to wild-type [1]: 4 fold

E2 glycoprotein expressed from pE1E2 Δ3 link (igVR deletion with extended linker) (from UniProt P27958 384-571; P27958 579-746)
E1E2-mediated entry of pseudotyped HIV-1 particles into Huh7 cells (luciferase) [2]: 8 fold

E2 Δ12-myc (from UniProt P27958 384-386; P27958 409-459; P27958 486-661)
percent reduction in CD81 binding compared to E2 Δ23-myc [3]: 50%
